Publication PMC10602870

Tests used:
Test in all cases: native gel or EMSA; binding titrations of 80N0 nucleosomes with Chd1 in the presence of AMP-PNP and salmon sperm competitor DNA; observed (apparent) Kd; read from gels (Supplementary Figure S6)
[1] = biological target: 80N0 Widom 601 nucleosome with pairs of abasic sites at both SHL2.7 sites (SHL+/-2.7, 27 bp from the dyad), Xenopus laevis histone octamer with H2B(S53C) (Xenopus laevis)
[2] = biological target: 80N0 Widom 601 nucleosome with 2 bp DNA mismatches at both SHL2 sites (SHL+/-2, 20 bp from the dyad), Xenopus laevis histone octamer with H2B(S53C) (Xenopus laevis)
[3] = biological target: 80N0 nucleosome, canonical Widom 601 DNA, Xenopus laevis histone octamer with H2B(S53C) (Xenopus laevis)
[4] = biological target: 80N0 Widom 601 nucleosome with pairs of abasic sites at both SHL2 sites (SHL+/-2, 20 bp from the dyad), Xenopus laevis histone octamer with H2B(S53C) (Xenopus laevis)
[5] = biological target: 80N0 Widom 601 nucleosome with 2 bp DNA mismatches at both SHL2.7 sites (SHL+/-2.7, 27 bp from the dyad), Xenopus laevis histone octamer with H2B(S53C) (Xenopus laevis)

- Kd [1]: 68 nM
- Kd [2]: 450 nM
- Kd [3]: 24 nM
- Kd [4]: 10000 nM
- Kd [5]: 22.2 nM
Substance: Chd1 chromatin remodeler (from UniProt P32657 1-1468) (enzyme)
